Measured values reported in the RNAGym collection of RNA variant scans (doi:10.1073/pnas.2313332121).

B1: TPR t1 (parent)
chain: GACCAAUCUGCCCUCAGAGCUCGAGAACAUCUUCGGAUGCAGAGGAGGCAGGCUUCGGUGGCGCGAUAGCGCCAACGUCCUCAACCUCCAAUGCAUCCCACCACAUGAUGAUGCCUGAAGAGCCUUGGUUUUUUG

Variants of: B1
Experiment: polymerase ribozyme fitness, log enrichment relative to wild type (log ratio); higher = more active; in vitro selection for triplet polymerase activity
In short: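 Fitness is a logarithmic measure of how a genotype enriched relative to the wild type, with replicate averages weighted by inverse variance. The logarithm uses base 2, and enrichment came from Illumina sequencing of input and output libraries. Those libraries were PCR-built, transcribed mutants of each subunit of a heterodimeric triplet polymerase ribozyme, passed through one triplicate in vitro selection round that included frozen incubation at −7 °C, gel excision of extended constructs and streptavidin-bead capture. Genotypes were kept only if they had ≥10 input reads and ≥1 read per output.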

Variant | polymerase ribozyme fitness (log ratio)
C13U A43U U59G C72A C104U | -2.63
C13U A18U A43C U59C G71U A105U | -4.76
G52A C53G U59A A119U | -4.71
C11U C53G | -0.654
C15U U78G C114U | -4.55
A41G C86A U87C G113U | -4.97
C115U G127A | -3.15
C13A G36A G63A C80U | -3.86
U7C A27G G63A | -1.53
G52C U54G U87C A100U | -1.94
A37G C79G | -1.49
A103U G127U U129G | -3.98
C40U G45U | -2.01
A37U U38C C53U | -1.6
C8U C73U | 1.07
G48U U109G | -4.7
C11G C64U A84U | -0.0856
C13U U21C A27C U87G C114G | -6.59
C11G C88A | -0.146
A74U A75U U81A G127U | -1.96
C8A A74U C115U A118U C124U | -0.848
C49A C89U U92C A95G U96A G113A U133A | -3.76
A18C C40G C70A A83G C94U C115U U129G | -5.58
A2U G110A | -3.63

Variant | polymerase ribozyme fitness (log ratio)
G47C C72U C85A C99G G110A | -7.27
C97A C123U | -2.71
U59G G113U U126A | -3.87
A46C C79A | -2.25
U9G U116A | -0.815
U14A C49U G60C A103C U112A C123G | -6.39
C72U A84C C124U | 1.07
G48A G51A G71A C79A A84U G128A U129G | -6.49
C53G U112C C124U | 1.27
G57U G117U | -2.86
C49A G71A C101A C114A | -4.05
A2U G69U C102U G113A U129A | -0.898
U21A G61C U112A U133C | -0.24
A41U A111G U112A A118U | -5.06
C11U G23A | -5.77
G63U C115U | -3.37
G19U G39U G48A G63C A111G | -4.79
A43U G45U G110U | -3.95
C88U C114U | -1.17
C102A G110A | -4.38
C20G A41C C73A U78A A84C C123U U133G | -3.7
G51U C53A G60A | -5.54
C12A C13G G45C G63A A119U C124A U132A | 0.867
C72A G120A U130G | -0.18

Variant | polymerase ribozyme fitness (log ratio)
C4U C12A A66C C70A | -5.72
A6G A83U | -0.371
G52A G69C C104U G113C | -4.79
C40U G57C G58A U116G | -3.95
A26G G71U | -3.23
U21A G61C C114A | -2.8
A37U C123U U126A | 0.344
A2U U9A A26C G60A G117U | -6.53
U9A G19C C40G A43U G60U | -3.06
U59A A74U | -0.959
G10A G44U U92G C115A | -3.73
A41C G45U G69U C124A U126G | -1.04
U96A C102A | -3.43
A90G C94U C97A C124A | -0.528
A29G C62U | -1.68
G61U C98U U129C | -0.95
A105C A121G | 0.5
G36C A37G G60C A121U | 0.419
C22G G52U G63C G93A | -4.47
C56U A74G G110A U112A | -2.67
C13U G60C G61A G117A | -2.25
G69C A84C U125A | -2.42
C8U C28U C73U | -1.68
C13U C72G | -0.128

Variant | polymerase ribozyme fitness (log ratio)
G10A G58C | 0.631
C13U G47A C82G C123G U125A | -1.19
U14G C72U G135U | -2.55
G25A A74U A100C U109A U130A | -6.43
C40A G61C C79G | -3.56
C62G G110U | -2.94
C8G C49U G127A | -1.03
U59A C104A | -1.75
A24G G60A | -1.82
C31G C73A | -6.15
A43G C70U | -2.76
A2U G10U C115U | -3.43
A37U G47A U116G | -3.09
G69A C80U | -2.58
A16U C40A A100U | -3.86
G17U G52U A83G C85U G120U | -3.18
U7G G120U | 0.729
G10C G17U G63A | -4.45
G69U G71C | -2.52
C72G U106G | -1.97
C40A A43G C53U G58A | -4.13
G51A G52A U54C | -4.49
G39A A46U C64U | -2.95
C13A G63U C70U | -0.406

Variant | polymerase ribozyme fitness (log ratio)
C49G U78C A95C | -2.13
G45U A74C A108G | -3.25
G58C A95G U109A | -5.73
C3A A75G A111G A118G U129C | -1.7
C72U C94G U132A | -1.02
A43U C72A C114U G128C | -5.92
A43G A74G C89U U109G | -7.22
C20U C70U G113U G120U | -3.51
C40U C70G C98U A119U | -3.66
G52U G63A | -1.95
A27C C82U U96G U125A U129G | -5.35
G44C C94G A121G | 0.2
A41U G69U G93C | -0.276
C56U C80G | -5.25
G69A C99U | -5.78
U7A G36A A43U U54A C101U U112A | -6.85
C13U G36C A74C | 0.0868
A46C C72U | -1.13
C3U C12U G63A C89G | -3.24
U7A A43U C70G | -6.28
C12G G35U C70U A74C C123G | -5.14
U106G U130G | -1.21
G69C C79G U109G | -6.78
G52C C88A | -0.833

Variant | polymerase ribozyme fitness (log ratio)
U32G A68U C70U C80A C101U A111U U126G | -8.12
C64U A84C C123G G135C | 1.41
C70U A121G | -0.18
G127A | -1.25
A105G U132A | -1.89
G44U G69U G117C A121C | -4.54
A50G C53A C70G | -2.47
G60U G110C C123U | -5.58
C11U A26U U54G | -2.81
G48A U87C C101A A105U | -3.9
U106A U116C | -0.567
C11G G110A | -1.04
U33C G63A U78C C80A C99A C102A U116G | -6.04
C40G A75U G127A | -2.31
C3G C11A C115U | -6.42
A46C G117A | -2.35
G47A U125A | -1.31
A27C C40G | -4.98
C34U U109C C114A | -6.96
C3U C62A C115A U125G | -1.86
C8A C72G | 0.254
C70U G71C | -1.67
C28G C56G G61A G77A | -2.42
C22G A118G A121U | -1.54

Variant | polymerase ribozyme fitness (log ratio)
A5C C13U A46C C64U U78A C79G G113C | -5.7
C12U G39C A121C | 0.709
A2U A50U C56U | -3.13
G45U C49U G61A C115G | -2.62
C12G C22A | -4.18
G47A C72U A121C U129A | 0.0942
G69A A111U U130A | -6.09
C4U C49U A66G | -2.3
A6G G63U | -1.16
A29C G36U C73U | -3.91
C72U C98U U131C | -1.05
C104A C123A | -1.7
C22A G60C U87A | -5.83
G42A G63C C86A | -3.7
G71C A100U G120U | -1.67
C34U C56U C115A | -4.02
A5G C8G G52C C79U | 0.0143
G35U C101A G113C | -6.29
C13U C124A | 1.91
A46C G63U | -2.01
G93C G113C | -3.08
C8G G39A C73A C97A | -5.92
C8U C73A A84U G128A | -1.97
